B1: Septin-12 (Homo sapiens), Q8IYM1 (parent)
chain: MDPLRRSPSPCLSSQPSSPSTPPCEMLGPVGIEAVLDQLKIKAMKMGFEFNIMVVGQSGLGKSTMVNTLFKSKVWKSNPPGLGVPTPQTLQLHSLTHVIEEKGVKLKLTVTDTPGFGDQINNDNCWDPILGYINEQYEQYLQEEILITRQRHIPDTRVHCCVYFVPPTGHCLRPLDIEFLQRLCRTVNVVPVIARADSLTMEEREAFRRRIQQNLRTHCIDVYPQMCFDEDINDKILNSKLRDRIPFAVVGADQEHLVNGRCVLGRKTKWGIIEVENMAHCEFPLLRDLLIRSHLQDLKDITHNIHYENYRVIRLNESHLLPRGPGWVNLAPASPGQLTTPRTFKVCRGAHDDSDDEF
partner: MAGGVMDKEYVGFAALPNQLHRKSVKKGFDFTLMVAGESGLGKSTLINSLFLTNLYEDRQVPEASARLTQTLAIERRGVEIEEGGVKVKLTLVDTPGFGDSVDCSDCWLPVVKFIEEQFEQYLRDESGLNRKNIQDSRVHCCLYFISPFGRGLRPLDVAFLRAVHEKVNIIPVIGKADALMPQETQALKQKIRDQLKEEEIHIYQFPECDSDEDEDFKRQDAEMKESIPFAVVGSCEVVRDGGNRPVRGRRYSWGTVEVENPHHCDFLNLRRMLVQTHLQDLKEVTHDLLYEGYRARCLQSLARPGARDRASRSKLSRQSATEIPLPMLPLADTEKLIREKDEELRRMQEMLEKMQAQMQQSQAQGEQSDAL

Variants of: B1
Conditions: with sept1_human SEPTIN1, Q8WYJ6

Variant | effect of a mutation on the interaction
MDPLRRSPSPCLSSQPSSPSTPPCEMLGPVGIEAVLDQLKIKAMKMGFEFNIMVVGQSGLGKSTMVNTLFKSKVWKSNPPGLGVPTPQTLQLHSLTHVIEEKGVKLKLTVTDTPGFGDQINNDNCWDPILGYINEQYEQYLQEEILITRQRHIPDTRVHCCVYFVPPTGHCLRPLDIEFLQRLCRTVNVVPVIARADSLTMEEREAFRRRIQQNLRTHCIDVYPQMCFDEDINDKILNSKLRDRIPFAVVGADQEHLVNGRCVLGRKTKWGIIEVENMAHCEFPLLRDLLIRSHLQDLKDITHNIHYENYCVIRLNESHLLPRGPGWVNLAPASPGQLTTPRTFKVCRGAHDDSDDEF [R311C] | disrupting interaction strength
MDPLRRSPSPCLSSQPSSPSTPPCEMLGPVGIEAVLDQLKIKAMKMGFEFNIMVVGQSGLGKSTMVNTLFKSKVWKSNPPGLGVPTPQTLQLHSLTHVIEEKGVKLKLTVTDTPGFGDQINNDNCWDPILGYINEQYEQYLQEEILITRQRHIPDTRVHCCMYFVPPTGHCLRPLDIEFLQRLCRTVNVVPVIARADSLTMEEREAFRRRIQQNLRTHCIDVYPQMCFDEDINDKILNSKLRDRIPFAVVGADQEHLVNGRCVLGRKTKWGIIEVENMAHCEFPLLRDLLIRSHLQDLKDITHNIHYENYRVIRLNESHLLPRGPGWVNLAPASPGQLTTPRTFKVCRGAHDDSDDEF [V162M] | disrupting interaction strength

Further lines, results first:

effect of a mutation on the interaction | Variant
with no effect | MDPLRRSPSPCLSSQPSSPSTPPCEMLGPVGIEAVLDQLKIKAMKMGFEFNIMVVGQSGLGKSTMVNTLFKSKVWKSNPPGLGVPTPQTLQLHSLTHVIEEKGVKLKLTVTDTPGFGDQINNDNCWDPILGYINEQYEQYLQEEILITRQRHIPDTRVHCCVYFVPPTGHCLRPLDIEFLQRLSRTVNVVPVIARADSLTMEEREAFRRRIQQNLRTHCIDVYPQMCFDEDINDKILNSKLRDRIPFAVVGADQEHLVNGRCVLGRKTKWGIIEVENMAHCEFPLLRDLLIRSHLQDLKDITHNIHYENYRVIRLNESHLLPRGPGWVNLAPASPGQLTTPRTFKVCRGAHDDSDDEF [C184S]
disrupting interaction strength | MDPLRRSPSPCLSSQPSSPSTPPCEMLGPVGIEAVLDQLKIKAMKMGFEFNIMVVGQSGLGKSTMVNTLFKSKVWKSNPPGLGVPTPQTLQLHSLTHVIEEKGVKLKLTVKDTPGFGDQINNDNCWDPILGYINEQYEQYLQEEILITRQRHIPDTRVHCCVYFVPPTGHCLRPLDIEFLQRLCRTVNVVPVIARADSLTMEEREAFRRRIQQNLRTHCIDVYPQMCFDEDINDKILNSKLRDRIPFAVVGADQEHLVNGRCVLGRKTKWGIIEVENMAHCEFPLLRDLLIRSHLQDLKDITHNIHYENYRVIRLNESHLLPRGPGWVNLAPASPGQLTTPRTFKVCRGAHDDSDDEF [T111K]
disrupting interaction strength | MDPLRRSPSPCLSSQPSSPSTPPCEMLGPVGIEAVLDQLKIKAMKMGFEFNIMVVGQSGLGKSTMVNTLFKSKVWKSNPPGLGVPTPQTLQLHSLTHVIEEKGVKLKLTVMDTPGFGDQINNDNCWDPILGYINEQYEQYLQEEILITRQRHIPDTRVHCCVYFVPPTGHCLRPLDIEFLQRLCRTVNVVPVIARADSLTMEEREAFRRRIQQNLRTHCIDVYPQMCFDEDINDKILNSKLRDRIPFAVVGADQEHLVNGRCVLGRKTKWGIIEVENMAHCEFPLLRDLLIRSHLQDLKDITHNIHYENYRVIRLNESHLLPRGPGWVNLAPASPGQLTTPRTFKVCRGAHDDSDDEF [T111M]
disrupting interaction strength | MDPLRRSPSPCLSSQPSSPSTPPCEMLGPVGIEAVLDQLKIKAMKMGFEFNIMVVGQSGLGKSTMVNTLFKSKVWKSNPPGLGVPTPQTLQLHSLTHVIEEKGVKLKLTVTDTPGFGDQINNDNCWDPILGYINEQYEQYLQEEILITRQRHIPDTRVHCCVYFVPPTGHCLRPLDIEFLQRLCRTVNVVPVIARADSLTMEEREAFRRRIQQNLRTHCIDIYPQMCFDEDINDKILNSKLRDRIPFAVVGADQEHLVNGRCVLGRKTKWGIIEVENMAHCEFPLLRDLLIRSHLQDLKDITHNIHYENYRVIRLNESHLLPRGPGWVNLAPASPGQLTTPRTFKVCRGAHDDSDDEF [V222I]
disrupting interaction strength | MDPLRRSPSPCLSSQPSSPSTPPCEMLGPVGIEAVLDQLKIKAMKMGFEFNIMVVGQSGLGKSTMVNTLFKSKVWKSNPPGLGVPTPQTLQLHSLTHVIEEKGVKLKLTVTDTPGFGDQINNDNCWDPILGYINEQYEQYLQEEILITRQRHIPDTRVHCCVYFVPPTGHCLRPLDIEFLQRLCRTVNVVPVIARADSLTMEEREAFRRRIQQNLRTHCIDVYPQMCFDEDINDKILNSKLRDRIPFAVVGADQEHLVNGRCDLGRKTKWGIIEVENMAHCEFPLLRDLLIRSHLQDLKDITHNIHYENYRVIRLNESHLLPRGPGWVNLAPASPGQLTTPRTFKVCRGAHDDSDDEF [V263D]

Variants of: B1
Conditions: with sept1_human SEPTIN1, Q8WYJ6
Remark: another data set of the same source

effect of a mutation on the interaction | Variant
disrupting interaction strength | MDPLRRSPSPCLSSQPSSPSTPPCEMLGPVGIEAVLDQLKIKAMKMGFEFNIMVVGQSGLGKSTMVNTLFKSKVWKSNPPGLGVPTPQTLQLHSLTHVIEEKGVKLKLTVTDTPGFGDQINNDNCWDPILGYINEQYEQYLQEEILITRQRHIPDTRVHCCVYFVPPTGHCLRPLDIEFLQRLCRTVNVVPVIARANSLTMEEREAFRRRIQQNLRTHCIDVYPQMCFDEDINDKILNSKLRDRIPFAVVGADQEHLVNGRCVLGRKTKWGIIEVENMAHCEFPLLRDLLIRSHLQDLKDITHNIHYENYRVIRLNESHLLPRGPGWVNLAPASPGQLTTPRTFKVCRGAHDDSDDEF [D197N]

From IntAct's records for PubMed 31515488
